These results are taken from US20150337308, “MATRIX METALLOPROTEINASE 9 (MMP-9) APTAMER AND USES THEREOF” (CHU DE BORDEAUX, published 2015).

The target in data set [1] is T1, hMMP-7 (Homo sapiens, UniProt P09237 P09237:95-267).
T1 sequence: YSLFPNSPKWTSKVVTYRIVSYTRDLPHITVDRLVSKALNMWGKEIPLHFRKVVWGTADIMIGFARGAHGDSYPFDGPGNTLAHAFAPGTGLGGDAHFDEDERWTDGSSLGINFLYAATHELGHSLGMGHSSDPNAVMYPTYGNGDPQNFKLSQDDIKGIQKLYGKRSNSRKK
In words: SPR; 50 nM protein, PBS. The following applies: label: 3' biotin; hairpin. The method, then:
(§1) Surface Plasmon Resonance (SPR) experiments were performed on a BIAcore™ 3000 apparatus (Biacore AB, Sweden). 2 μg of hMMP-9 protein were injected on a carboxymethylated dextran CM5 sensorchip for immobilisation and aptamers F3B, F3C1 and F3C2 were injected at 200 nM (20 μl/min) in SP buffer. Alternatively CM5 sensorchips were functionalized with streptavidin. 3′ end biotinylated F3B and F3Bomf were immobilised on the functionalized CM5 and hMMP-9 protein at 100 nM in SP buffer was injected. hMMP-9 was injected at different concentrations (from 5 to 160 nM) in PBS buffer. In another series of experiments 3′end biotinylated aptamer F3Bomf was immobilized and hMMP-9, pro-hMMP-9, mouse pro-MMP-9, human MMP-2 or MMP-7 proteins were injected at 50 nM in PBS buffer. SPR experiments were performed at 23° C., at 20 μl/min, and the complexes were dissociated with a pulse of a solution containing 40% formamide/3.6 M urea/30 mM EDTA (42).

Another data set concerns the target hMMP-2 (gelatinase A) (Homo sapiens, UniProt P08253 P08253:110-660). In words: SPR; 50 nM protein, PBS. Conditions: label: 3' biotin; hairpin. The procedure: as §1
The target in data set [2] is T2, hMMP-9 (gelatinase B) (Homo sapiens, UniProt P14780 P14780:107-707). The data set is described as follows: SPR; no detectable signal. The following applies: tags: Calbiochem. The procedure:
as §1
Next we optimized the F3B chemistry in the perspective of its use in biological media. […] However the equilibrium constant was evaluated to be in the low nanomolar range. […] In contrast, F3Bomf was able to discriminate between the human and the murine zymogen pro-MMP-9: a weak signal (49 RU) to the mouse pro-MMP-9 was detected, compared to about 1 300 RU with the human proenzyme.
A general note: In SPR one partner is held on a chip, and binding of the other changes the refractive index at the surface.

For a further data set, the target named is T3, pro-hMMP-7 (Homo sapiens, UniProt P09237 P09237:18-267).
T3 sequence: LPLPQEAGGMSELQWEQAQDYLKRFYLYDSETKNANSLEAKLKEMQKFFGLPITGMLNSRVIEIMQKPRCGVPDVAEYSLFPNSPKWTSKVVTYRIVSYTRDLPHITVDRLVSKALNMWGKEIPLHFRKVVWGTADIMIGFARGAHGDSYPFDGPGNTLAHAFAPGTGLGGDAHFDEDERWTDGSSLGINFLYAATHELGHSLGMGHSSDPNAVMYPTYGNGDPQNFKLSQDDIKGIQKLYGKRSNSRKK
The data set is described as follows: filter; no retention. The following applies: label: 32P 5' end; imperfect hairpin.

The target of data set [3] is T1, hMMP-7. In words: filter; no retention. Conditions: label: 32P 5' end; imperfect hairpin.
For data set [4], the target named is T2, hMMP-9 (gelatinase B). The data set is described as follows: filter; SP buffer (5 mM CaCl2, 1 mM Mg acetate), 23 C. The following applies: tags: Calbiochem; label: 32P 5' end; imperfect hairpin. The procedure: The dissociation constant (Kd) of the complexes, formed by the aptamers and the hMMP-9 protein, was determined using the filter retention method. 1 nM of ³²P 5′end-labeled aptamer was incubated with increasing concentrations of hMMP-9 (10, 20, 40, 72, 160, 320, 500 nM) for 20 min at 23° C. in 20 μl SP buffer. Complexes were filtered and the radioactivity retained on the filter was quantified using a scintillation counter (LS 6000 IC, Beckman). Kd values were deduced from data point fitting with Kaleidagraph 3.0 (Abelbeck software), according to the equation: B=(Bmax[L]₀)/([…]), where B is the proportion of complex, Bmax is the maximum of complex formed and [L]₀ is the total concentration of unlabeled ligand.

T2 sequence (P14780 107-707, one chain of several): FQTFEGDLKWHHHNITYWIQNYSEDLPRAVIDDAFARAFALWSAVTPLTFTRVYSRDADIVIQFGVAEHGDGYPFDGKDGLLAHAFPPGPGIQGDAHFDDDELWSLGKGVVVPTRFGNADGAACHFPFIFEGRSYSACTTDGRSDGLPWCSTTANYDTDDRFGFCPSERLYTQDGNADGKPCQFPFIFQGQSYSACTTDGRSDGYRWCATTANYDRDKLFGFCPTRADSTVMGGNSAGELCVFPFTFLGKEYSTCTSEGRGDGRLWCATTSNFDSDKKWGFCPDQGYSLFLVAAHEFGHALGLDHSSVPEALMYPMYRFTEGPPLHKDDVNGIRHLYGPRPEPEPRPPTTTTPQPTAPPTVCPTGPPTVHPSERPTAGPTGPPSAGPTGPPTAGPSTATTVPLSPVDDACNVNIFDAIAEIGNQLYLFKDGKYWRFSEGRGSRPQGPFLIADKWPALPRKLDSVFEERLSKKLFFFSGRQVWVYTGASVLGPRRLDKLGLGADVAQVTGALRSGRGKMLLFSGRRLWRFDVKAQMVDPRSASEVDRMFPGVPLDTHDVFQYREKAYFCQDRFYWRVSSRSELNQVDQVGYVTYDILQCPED
Sequence of hMMP-2 (gelatinase A) (P08253 110-660, one chain of several): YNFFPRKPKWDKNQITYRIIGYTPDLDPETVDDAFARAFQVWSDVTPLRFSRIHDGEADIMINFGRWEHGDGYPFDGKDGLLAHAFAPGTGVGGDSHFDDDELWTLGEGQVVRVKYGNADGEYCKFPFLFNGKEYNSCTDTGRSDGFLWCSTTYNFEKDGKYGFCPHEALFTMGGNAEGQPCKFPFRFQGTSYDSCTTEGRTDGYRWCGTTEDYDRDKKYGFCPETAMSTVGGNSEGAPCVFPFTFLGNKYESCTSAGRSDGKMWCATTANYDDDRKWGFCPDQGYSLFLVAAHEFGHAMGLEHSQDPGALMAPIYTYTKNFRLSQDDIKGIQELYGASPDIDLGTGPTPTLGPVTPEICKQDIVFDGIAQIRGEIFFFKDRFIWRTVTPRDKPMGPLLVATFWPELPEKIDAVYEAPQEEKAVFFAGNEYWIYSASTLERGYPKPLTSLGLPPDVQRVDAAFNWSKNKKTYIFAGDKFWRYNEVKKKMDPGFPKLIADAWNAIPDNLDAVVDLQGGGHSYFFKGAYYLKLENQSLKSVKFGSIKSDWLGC

B1: F3Bomf (XNA)
RNA: UGCCCUGCCCUCACCCGUUAGCCUGAGCGCCCCGCA
modifications: 2'-F pyrimidines, 2'-OMe purines
For the molecule B1, the binding result in the data set with hMMP-7 [1] and with hMMP-2 (gelatinase A) was “no binding” throughout.

B2: control scrambled sequence (XNA)
RNA: UGCCAAACGCGUCCCCUUUGCCCGGCCUCCGCCGCA
modifications: 2'-F pyrimidines, 2'-OMe purines
Consider B2, for which the binding result with hMMP-9 (gelatinase B) [2] was “no binding”.

B3: F3 (ssRNA)
RNA: GGUUACCAGCCUUCACUGCCCUGCCCUCACCCGUUAGCCUGAGCGCCCCGCACCACGGUCGGUCACAC
modifications: 2'-F pyrimidines, 2'-OH purines
Turning to B3, the binding result in the data set with pro-hMMP-7 and with hMMP-7 [3] was “no binding” each time. In the data set with hMMP-9 (gelatinase B) [4], this molecule came in with a dissociation constant (Kd) of 8.1 nM.

In general, Kd refers to a measure of binding affinity in units of concentration.
